Target: VEGF mitogenic receptors
Test: cell-based or functional assay

half-maximal activity, HUVEC mitogenesis ([3H]thymidine incorporation): 17 to 19 ng/mL
Substance: purified human VEGF165 (R&D Systems, expressed in Sf21 cells) (from UniProt P15692 27-191) (ligand)
